Results as given in paper PMC7896505, “Expression, purification, crystallization and preliminary X-ray crystallographic studies of a mitochondrial membrane-associated protein Cbs2 from Saccharomyces cerevisiae” (PeerJ, 2021).

Biological target: the molecule itself
Assay: SEC; Superdex 200 10/300 in buffer G (20 mM Tris-HCl pH 7.5, 100 mM NaCl, 2 mM DTT); molecular weight from a calibration curve (Gel Filtration Calibration Kits HMW and LMW); peak at approximately 90 KDa against about 44 KDa on SDS-PAGE

B1: Cbs2 from Saccharomyces cerevisiae (natural protein, S. cerevisiae, UniProt P14905 1-389, looked up)
chain: MSSSIPRVYSLGNSAMTYLLALRIAQLPSQPKVPSVVLLLNDQKKLNRFLNNDSKIIVKSSNNNKETYHRQFMASCVPPILSNGEIAPIENLIVSDPSSKFITAQLSKYNKSLRPETNILFLNPSLNLLEHLHRYRWRFDEARPNLFMGFTTPVDVGTIHQEFQLSLKVKGRIQFHIAKIDGFPRMSSTGKSASLSLRGDRQKNEKENNAFYKLFREISRLRSGIGSDLVSFDLHVHGFQDLFFTELEKLILESCTEPLLAVYDCVYKKELLKIPGAQDIIKKLISEQLSIIDRSYPSLNTNPNYSVIFDKERIFSLVMRDLEVNGHKRAKLAQSLNQLNQTNINELNGFFVSLGKYKKCNCKWNDILLTLIKGKQFITKQKALDYHYL
notes: 389 amino acids; The selenomethionine derivative (Se-Cbs2) was used only for crystallization; also called recombinant Cbs2; Cbs2-His tag; source: E. coli C43 (DE3), purified (Ni-NTA, Hitrap Q anion exchange, Superdex 200 gel filtration)
  stoichiometry N: 2
